The target in the assay is T1, HLA-A*02:01 (human).
T1 construct: monomers captured on streptavidin plates; also called MHC class I
Nature of the assay: UV peptide exchange ELISA. The source says:
Candidate peptides for T cell based therapies according to the present invention were further tested for their MHC binding capacity (affinity). The individual peptide-MHC complexes were produced by UV-ligand exchange, where a UV-sensitive peptide is cleaved upon UV-irradiation, and exchanged with the peptide of interest as analyzed. Only peptide candidates that can effectively bind and stabilize the peptide-receptive MHC molecules prevent dissociation of the MHC complexes. To determine the yield of the exchange reaction, an ELISA was performed based on the detection of the light chain (p2m) of stabilized MHC complexes.
96 well MAXISorp plates (NUNC) were coated over night with 2 μg/ml streptavidin in PBS at room temperature, washed 4× and blocked for 1 h at 37° C. in 2% BSA containing blocking buffer. […] Peptide-MHC monomers of the UV-exchange reaction were diluted 100 fold in blocking buffer. Samples were incubated for 1h at 37° C., washed four times, incubated with 2 μg/ml HRP conjugated anti-p2m for 1h at 37° C., washed again and detected with TMB solution that is stopped with […]. Absorption was measured at 450 nm.

The molecule SLTETIEGV showed a peptide exchange yield of 20 to 50%. Next, SLTEYLQNV: at least 75%. For SLTIDGIYYV the value was at least 75%. The molecule SLTIDGIRYV registered a peptide exchange yield of 50 to 75%.

Source of the values: patent publication US20170037110A1 (IMMATICS BIOTECHNOLOGIES, published 2017).
